The target in test [1] is T1, human sodium-dependent phosphate transporter 2B (NaPi2b) (human, UniProt O95436 1-690).
T1 construct: also called hNaPi2b; Hu NaPi2b
T1 sequence: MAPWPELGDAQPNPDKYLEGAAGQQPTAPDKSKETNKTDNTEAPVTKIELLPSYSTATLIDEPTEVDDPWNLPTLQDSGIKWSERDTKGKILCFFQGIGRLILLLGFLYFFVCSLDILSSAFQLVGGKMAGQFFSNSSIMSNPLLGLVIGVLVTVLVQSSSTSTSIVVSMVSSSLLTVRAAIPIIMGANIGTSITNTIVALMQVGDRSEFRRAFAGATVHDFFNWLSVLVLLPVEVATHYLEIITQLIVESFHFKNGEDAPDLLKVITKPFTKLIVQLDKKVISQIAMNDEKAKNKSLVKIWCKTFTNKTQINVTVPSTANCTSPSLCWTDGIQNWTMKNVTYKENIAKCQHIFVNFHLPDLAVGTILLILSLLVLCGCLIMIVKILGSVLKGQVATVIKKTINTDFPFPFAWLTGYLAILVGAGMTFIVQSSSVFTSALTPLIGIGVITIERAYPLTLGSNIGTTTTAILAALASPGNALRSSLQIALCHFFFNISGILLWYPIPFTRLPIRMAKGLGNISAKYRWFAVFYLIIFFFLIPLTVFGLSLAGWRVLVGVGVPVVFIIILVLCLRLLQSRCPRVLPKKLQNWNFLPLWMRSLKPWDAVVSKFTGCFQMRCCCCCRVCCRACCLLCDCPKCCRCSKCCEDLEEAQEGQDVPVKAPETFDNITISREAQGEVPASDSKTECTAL
As to the kind of experiment: flow cytometry, IGROV-1, HCC-78 and H441 cells. A general note: In flow cytometry, cells or beads pass a laser one at a time.

The target of test [2] is T2, human sodium-dependent phosphate transporter 2B (NaPi2b) (human, UniProt O95436 1-690).
T2 sequence: T1 sequence
As to the kind of experiment: cell-based or functional assay.

In test [3] the target is T2, human sodium-dependent phosphate …. As to the kind of experiment: cell-based or functional assay. The source holds these as a separate data set.
The target is the same in test [4]. As to the kind of experiment: cell-based or functional assay. This is another data set of the same source.
Test [5] has the same target. As to the kind of experiment: flow cytometry on HEK293-6e cells transfected with human NaPi2b.
Experimental: Following transfection, cells were seeded at 50,000 cells/well in conical-bottom 96-well plates and treated with test antibody or antibody-drug conjugate for 24 hours at 4° C. to prevent internalization. […] Following incubation and washing, fluorescence was detected by flow cytometry on a BD LSRFortessa™ Cell Analyzer (BD Biosciences, Franklin Lake, NJ) with 1,000 minimum events collected per well.
Test [6] addresses T3, KLH (Sigma-Aldrich, H8283).
T3 construct: Coating protein of the non-specific ELISA (NS-ELISA)
As to the kind of experiment: NS-ELISA, plate coated with KLH, mAb at 100 nM; ratio of signal to a buffer well. Background: ELISA stands for enzyme-linked immunosorbent assay.
Experimental: NS-ELISA was used to measure the propensity of the antibodies to bind to a range of biomolecules to emulate the undesirable non-specific interactions to biological matrices in vivo as described below.
NS-ELISA was carried out in Corning@ 96-well EIA/RIA Easy Wash™ Clear Flat Bottom Polystyrene High Bind Microplate coated overnight at 4° C. with 50 μL of Heparin (Sigma, H3149) diluted with 50 mM sodium carbonate pH 9.6 to a final concentration of 250 μg/mL. The plate was incubated for 2 days at room temperature, wells that were coated with heparin were not covered to allow air dry. […] 50 μL each of insulin, KLH, dsDNA and ssDNA were added to a 96 well plate, followed by the incubation at 37° C. for 2 h. The coating materials were removed, and the plate was blocked with 200 μL of Gibco™ PBS pH7.4, 0.1% Tween®20, and incubated for 1 h at room temperature with shaking at 200 rpm. The plate was washed 3 times with Gibco™ PBS pH7.4, 0.1% Tween 20. 50 μL of each mAb at 100 nM (15 mg/mL) in Gibco™ PBS pH 7.4, 0.1% Tween®20 was added in duplicate to the wells and incubated for 1 h at room temperature with shaking at 200 rpm. […] Plates were incubated for 1 h at room temperature, with shaking at 200 rpm. The plate was washed three times with Gibco™ PBS pH7.4, 0.1% Tween 20, and 100 μL of TMB substrate (Cell Signaling Technology©, 7004P6) added to each well. […] Binding scores were calculated as the ratio of the ELISA signal of the antibody to the signal of a well containing buffer instead of the primary antibody. The cutoffs considered for each binding molecule (ssDNA. KLH, Insulin, dsDNA and Heparin) were internally calculated, based on the average of Zymeworks Inc. produced antibodies and antibodies benchmarks published in the literature.

The target of test [7] is T1, human sodium-dependent phosphate …. As to the kind of experiment: KinExA, IGROV-1 cells, monovalent format. (In general: Kinetic exclusion samples the free partner from a solution-phase mixture.)
Experimental: The cell-binding assay was set up using the antibody constructs or variants as constant binding partner at two different concentrations of 50 μM and 500 μM. For the titration curve with antibody variants fixed at 50 μM, at least 10 million IGROV-1 cells were used as titrant. For the titration curve with antibody variants fixed at 500 μM, at least 5 million cells were used as titrant. The antibody variants and cells were mixed in PBS pH 7.4, 1 mg/mL BSA, 0.2% NaN₃ and incubated at 4° C. for 7 days with gentle rotation until equilibrium was reached. After incubation, the mixture of antibody variants and cells was centrifuged to separate the cells from the unbound free antibody variants.
N-curve analysis was used to calculate the affinity and receptor expression level with the concentrations of antibody variant as reference point.
Test [8] deals with T4, cynomolgus monkey NaPi2b (cynomolgus monkey, UniProt O95436 1-690 (human entry)).
T4 construct: also called Cyno NaPi2b; Cy NaPi2b
T4 chain: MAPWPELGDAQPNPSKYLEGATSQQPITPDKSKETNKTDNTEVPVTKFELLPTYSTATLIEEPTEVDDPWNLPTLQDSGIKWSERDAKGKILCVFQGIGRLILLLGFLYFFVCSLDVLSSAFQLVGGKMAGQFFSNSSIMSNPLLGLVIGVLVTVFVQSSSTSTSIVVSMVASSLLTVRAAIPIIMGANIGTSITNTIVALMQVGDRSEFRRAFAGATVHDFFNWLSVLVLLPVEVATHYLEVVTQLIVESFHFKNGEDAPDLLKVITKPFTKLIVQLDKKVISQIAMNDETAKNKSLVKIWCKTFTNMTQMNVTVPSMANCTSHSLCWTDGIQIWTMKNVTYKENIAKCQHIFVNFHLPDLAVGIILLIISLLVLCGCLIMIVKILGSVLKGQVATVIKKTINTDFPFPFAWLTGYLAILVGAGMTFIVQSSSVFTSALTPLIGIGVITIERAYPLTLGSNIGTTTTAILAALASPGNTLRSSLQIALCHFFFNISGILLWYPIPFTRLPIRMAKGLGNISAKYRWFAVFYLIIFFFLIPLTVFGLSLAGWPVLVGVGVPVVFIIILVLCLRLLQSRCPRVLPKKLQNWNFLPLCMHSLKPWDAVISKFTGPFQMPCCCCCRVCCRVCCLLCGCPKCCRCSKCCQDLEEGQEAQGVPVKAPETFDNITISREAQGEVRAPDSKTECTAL
As to the kind of experiment: flow cytometry, HEK293-6e cells transfected with cynomolgus NaPi2b.

Test [9] concerns the target T1, human sodium-dependent phosphate …. As to the kind of experiment: cell-based or functional assay. This is another data set of the same source.
The target is the same in test [10]. As to the kind of experiment: flow cytometry on IGROV-1 cells (endogenous NaPi2b), 24 h at 4 C, anti-human IgG Fc AF647, APC-A GeoMean.
Experimental: Briefly, cells were seeded at 50,000 cells/well in conical-bottom 96-well plates and treated with test antibody for 24 hours at 4° C. to prevent internalization. […] Following incubation and washing, fluorescence was detected by flow cytometry on a BD LSRFortessa™ Cell Analyzer (BD Biosciences, Franklin Lake, NJ) with 1,000 minimum events collected per well.

The results in this text go back to US20250235548A1 (Zymeworks, published 2025).

Numbering of substitutions follows the chain as printed. Where two headings read alike, the source gives them in different places.

B1: v21995 (palivizumab), anti-RSV negative control antibody (antibody, human IgG1, kappa, V domains shown)
VH: QVTLRESGPALVKPTQTLTLTCTFSGFSLSTSGMSVGWIRQPPGKALEWLADIWWDDKKDYNPSLKSRLTISKDTSKNQVVLKVTNMDPADTATYYCARSMITNWYFDVWGAGTTVTVSS
VL: DIQMTQSPSTLSASVGDRVTITCKSQLSVGYMHWYQQKPGKAPKLLIYDTSKLASGVPSRFSGSGSGTEFTLTISSLQPDDFATYYCFQGSGYPFTFGGGTKLEIKR
In the case of B1, in test [1], the binding result is recorded as “no binding”.

B2: v18993 (lifastuzumab)-MCvcPABC-MMAE DAR 4 (antibody, human IgG1, kappa)
heavy 1: GEVQLVESGGGLVQPGGSLRLSCAASGFSFSDFAMSWVRQAPGKGLEWVATIGRVAFHTYYPDSMKGRFTISRDNSKNTLYLQMNSLRAEDTAVYYCARHRGFDVGHFDFWGQGTLVTVSSASTKGPSVFPLAPSSKSTSGGTAALGCLVKDYFPEPVTVSWNSGALTSGVHTFPAVLQSSGLYSLSSVVTVPSSSLGTQTYICNVNHKPSNTKVDKKVEPKSCDKTHTCPPCPAPELLGGPSVFLFPPKPKDTLMISRTPEVTCVVVDVSHEDPEVKFNWYVDGVEVHNAKTKPREEQYNSTYRVVSVLTVLHQDWLNGKEYKCKVSNKALPAPIEKTISKAKGQPREPQVYVYPPSRDELTKNQVSLTCLVKGFYPSDIAVEWESNGQPENNYKTTPPVLDSDGSFALVSKLTVDKSRWQQGNVFSCSVMHEALHNHYTQKSLSLSPG
heavy 2: not shown
light: GDIQMTQSPSSLSASVGDRVTITCRSSETLVHSSGNTYLEWYQQKPGKAPKLLIYRVSNRFSGVPSRFSGSGSGTDFTLTISSLQPEDFATYYCFQGSFNPLTFGQGTKVEIKRTVAAPSVFIFPPSDEQLKSGTASVVCLLNNFYPREAKVQWKVDNALQSGNSQESVTEQDSKDSTYSLSSTLTLSKADYEKHKVYACEVTHQGLSSPVTKSFNRGEC
modifications: MCvcPABC-MMAE drug-linker; DAR 4 for the whole antibody; attachment residues not stated
Consider B2, for which, in [2], the “EC50 of cytotoxicity, H441 3D spheroids” value was determined as 11.7 nM; the “EC50 of cytotoxicity, IGROV-1 3D spheroids” value (“EC50 … IGROV-1 3D spheroids” for short) was determined as 0.69 nM; the “EC50 of cytotoxicity, TOV-21G 3D spheroids” value was determined as 25.5 nM.

B3: v29456-MC-GGFG-AM-Compound 139 DAR 8 (antibody, human IgG1, kappa)
heavy: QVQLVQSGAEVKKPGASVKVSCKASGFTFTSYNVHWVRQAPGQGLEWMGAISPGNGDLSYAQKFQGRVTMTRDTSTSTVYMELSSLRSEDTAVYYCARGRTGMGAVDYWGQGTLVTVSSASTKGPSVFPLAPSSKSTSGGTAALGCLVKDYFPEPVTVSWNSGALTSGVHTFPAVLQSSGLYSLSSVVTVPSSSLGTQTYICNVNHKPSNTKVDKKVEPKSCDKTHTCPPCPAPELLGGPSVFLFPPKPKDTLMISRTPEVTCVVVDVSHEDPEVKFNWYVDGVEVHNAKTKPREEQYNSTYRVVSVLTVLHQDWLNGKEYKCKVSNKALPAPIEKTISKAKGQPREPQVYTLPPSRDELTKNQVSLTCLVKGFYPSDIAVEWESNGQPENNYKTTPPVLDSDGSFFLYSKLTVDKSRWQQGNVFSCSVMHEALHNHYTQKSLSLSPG
light: DVQMTQSPSSLSASVGDRVTITCRASQDVYSYLNWYQQKPGKAVKLLIYYTSRLQSGVPSRFSGSGSGTDYTLTISSLQPEDFATYYCQQYNIFPWTFGQGTKLEIKRTVAAPSVFIFPPSDEQLKSGTASVVCLLNNFYPREAKVQWKVDNALQSGNSQESVTEQDSKDSTYSLSSTLTLSKADYEKHKVYACEVTHQGLSSPVTKSFNRGEC
modifications: MC-GGFG-AM-Compound 139 drug-linker on reduced cysteines (maleimide); DAR 8 for the whole antibody
In the case of B3, in [2], the “EC50 of cytotoxicity, H441 3D spheroids” value is 1.57 nM; the “EC50 … IGROV-1 3D spheroids” value came to 0.55 nM; the “EC50 of cytotoxicity, TOV-21G 3D spheroids” value worked out at 0.54 nM. Further, in test [3], the “EC50 of cytotoxicity, 2D monolayer, IGROV-1 cells” value was 0.39 nM and the “EC50 of cytotoxicity, 2D monolayer, TOV-21G cells” value was 4.3 nM. In addition, in test [4], the “EC50 … IGROV-1 3D spheroids” value was determined as 0.31 nM and the “EC50 of cytotoxicity, TOV-21G:HDFa (1:1) 3D spheroids” value stood at 0.24 nM.

B4: humanized anti-NaPi2b antibody variant v38591 (antibody, human IgG1, kappa)
heavy: not shown
light: B3 light
notes: Human IgG1/kappa full-size antibody; It is identical to v29456 except that the heavy chains include a C-terminal lysine; also called v38591 (H1L2)
Molecule B4 yielded a Bmax in test [5] of 65.

B5: v23855, parental mouse-human chimeric anti-NaPi2b antibody (antibody, human IgG1, kappa, V domains shown)
VH: QAYLQQSGAELVRPGASVKMSCKASGFTFTSYNVHWVKQTPRQGLEWIAAISPGNGDLSYNQRFKDKATLTVDRSSSTAYMQLSGLTSEDSAVYFCARGRTGMGAVDYWGQGTSVTVSS
VL: DVQMTQTASSLSASLGDRVTISCRASQDVYSYLNWYQQKPHGTVKLLIYYTSRLQSGVPSRFTGSGSGTDYSLTISNLEPEDIATYYCQQYNIFPWTFGGGTKLEIKR
notes: Full-size antibody; also called parental chimeric
Consider B5, for which, in test [6], the NS-ELISA binding score is 2.38.

B6: v29452 humanized anti-NaPi2b antibody (antibody, human IgG1, kappa, V domains shown)
VH: QVQLVQSGAEVKKPGASVKVSCKASGFTFTSYNVHWVRQAPGQGLEWMGAISPGNGDLSYAQKFQGRVTMTRDTSTSTVYMELSSLRSEDTAVYYCARGRTGMGAVDYWGQGTLVTVSS
VL: DVQMTQSPSSLSASVGDRVTITCRASQDVYSYLNWYQQKPGKAVKLLIYYTSRLQSGVPSRFSGSGSGTDYTLTISSLQPEDIATYYCQQYNIFPWTFGQGTKLEIKR
notes: Full-size IgG1/kappa; also called H1L3
Consider B6, for which, in test [6], the NS-ELISA binding score worked out at 1.34.

B7: v36123, monovalent format of humanized antibody variant 29452 (antibody, V domains shown)
VH: B6 VH
VL: DVQMTQSPSSLSASVGDRVTITCRASQDVYSYLNWYQQKPGKAVKLLIYYTSRLQSGVPSRFSGSGSGTDYTLTISSLQPEDIATYYCQQYNIFPWTFGQGTKLEIK
notes: also called VH1/VL3
With B7, in [7], the “fold lower binding affinity than chimeric parental antibody construct” value was approximately 2 fold.

B8: v29456 humanized anti-NaPi2b antibody (antibody, human IgG1, kappa)
heavy: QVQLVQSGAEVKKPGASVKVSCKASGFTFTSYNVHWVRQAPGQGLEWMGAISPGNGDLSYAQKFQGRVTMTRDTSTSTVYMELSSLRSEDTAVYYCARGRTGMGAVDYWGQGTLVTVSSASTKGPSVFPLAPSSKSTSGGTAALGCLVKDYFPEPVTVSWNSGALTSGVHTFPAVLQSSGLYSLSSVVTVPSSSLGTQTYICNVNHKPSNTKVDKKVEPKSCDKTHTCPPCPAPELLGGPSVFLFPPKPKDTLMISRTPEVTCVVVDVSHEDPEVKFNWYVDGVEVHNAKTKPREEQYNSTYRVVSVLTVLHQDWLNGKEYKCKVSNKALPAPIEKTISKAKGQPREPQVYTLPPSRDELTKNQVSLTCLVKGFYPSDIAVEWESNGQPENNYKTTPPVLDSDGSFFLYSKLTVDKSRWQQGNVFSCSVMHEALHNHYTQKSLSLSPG
light: B3 light
notes: Full-size IgG1/kappa; also called H1L2
In the case of B8, the NS-ELISA binding score in test [6] is 1.37. In test [8], the “fold lower apparent Kd than v18992 (MX35)” value was determined as 10 fold and the “fold lower apparent Kd than v18993 (lifastuzumab)” value is 2 fold. In [9], the “Internalized Fluorescence Fold-Over Palivizumab, HCC-78, 5 hrs, 10 nM” value is 25.3 fold; the “Internalized Fluorescence Fold-Over Palivizumab, HCC-78, 24 hrs, 10 nM” value worked out at 59.9 fold; the “Internalized Fluorescence Fold-Over Palivizumab, NCI-H441, 5 hrs, 10 nM” value is 2.4 fold; the “Internalized Fluorescence Fold-Over Palivizumab, NCI-H441, 24 hrs, 10 nM” value came out at 4 fold.

B9: v36124, monovalent format of humanized antibody variant 29456 (antibody, V domains shown)
VH: B6 VH
VL: B7 VL with I83F
notes: also called VH1/VL2
As to B9, the “fold lower binding affinity than chimeric parental antibody construct” value in test [7] was approximately 2 fold.

B10: v18992 (MX35)-DL2 antibody-drug conjugate (antibody, human IgG1, kappa)
heavy 1: GQVQLVQSGAEVVKPGASVKMSCKASGYTFTGYNIHWVKQAPGQGLEWIGAIYPGNGDTSYKQKFRGRATLTADTSTSTVYMELSSLRSEDSAVYYCARGETARATFAYWGQGTLVTVSSASTKGPSVFPLAPSSKSTSGGTAALGCLVKDYFPEPVTVSWNSGALTSGVHTFPAVLQSSGLYSLSSVVTVPSSSLGTQTYICNVNHKPSNTKVDKKVEPKSCDKTHTCPPCPAPELLGGPSVFLFPPKPKDTLMISRTPEVTCVVVDVSHEDPEVKFNWYVDGVEVHNAKTKPREEQYNSTYRVVSVLTVLHQDWLNGKEYKCKVSNKALPAPIEKTISKAKGQPREPQVYVYPPSRDELTKNQVSLTCLVKGFYPSDIAVEWESNGQPENNYKTTPPVLDSDGSFALVSKLTVDKSRWQQGNVFSCSVMHEALHNHYTQKSLSLSPG
heavy 2: not shown
light: GDIQMTQSPSSLSASVGDRVTITCSASQDIGNFLNWYQQKPGKTVKVLIYYTSSLYSGVPSRFSGSGSGTDYTLTISSLQPEDFATYYCQQYSKLPLTFGQGTKLELKRTVAAPSVFIFPPSDEQLKSGTASVVCLLNNFYPREAKVQWKVDNALQSGNSQESVTEQDSKDSTYSLSSTLTLSKADYEKHKVYACEVTHQGLSSPVTKSFNRGEC
modifications: maleimide functionalized auristatin drug linker (DL2); sites and DAR not stated
notes: also called MX35-DL2 ADC
B10: in [10], the “EC50 (read off the curve)” value is approximately 1 nM.

Broadly, the EC50 (read off the curve) is the concentration giving half of the maximal effect.
